Test results reported in publication PMC5473807, “Distribution and kinetics of the Kv1.3-blocking peptide HsTX1[R14A] in experimental rats” (Scientific Reports, 2017).
Like-named read-outs stand apart in the source and are kept apart here.

Test: In vivo biodistribution by organ and tissue extraction
Parameters: species or system male Wistar rats
Conditions: for tissue uptake dose at 4 h / SUV at 24 h / tissue uptake dose at 24 h / SUV at 48 h / tissue uptake dose at 48 h / SUV at 1 h / tissue uptake dose at 1 h / SUV at 4 h / tissue uptake dose at 5 min / SUV at 5 min / tissue uptake dose: male, Wistar, total radioactivity; for tissue uptake dose at 4 h / SUV at 4 h: 240 min p.i.; for tissue uptake dose at 4 h / SUV at 24 h / tissue uptake dose at 24 h / SUV at 48 h / tissue uptake dose at 48 h / SUV at 1 h / tissue uptake dose at 1 h / SUV at 4 h / tissue uptake dose at 5 min / SUV at 5 min: mean ± SD; for SUV at 24 h / tissue uptake dose at 24 h: 1440 min p.i.; for SUV at 48 h / tissue uptake dose at 48 h: 2880 min p.i.; for SUV at 1 h / tissue uptake dose at 1 h: 60 min p.i.; for tissue uptake dose at 5 min / SUV at 5 min: 5 min p.i.; for tissue uptake dose: whole body, end of observation (Fig. 7c), time not given, mean ± SEM, read-out: remaining activity in the body; for AUC Kidney / AUC Liver: calculated between 1 and 48 h; for t1/2 Blood / t1/2 Kidney / t1/2 Liver: calculated from 24 to 48 h
Description: The present study includes data obtained from a total of 50 animals. Four animals (body weight 227 ± 10 g) for each time point were injected intravenously into a tail vein or subcutaneously with approximately 0.3 MBq ([…]) [^64Cu]Cu-NOTA-HsTX1[R14A] conjugate in 0.5 mL electrolyte solution E-153 (Serumwerk Bernburg, Germany). Animals were euthanised at 5, 60, 240, 1440 and 2880 min post-injection. Blood and the major organs were collected, weighed, and counted in a cross-calibrated γ-counter (Isomed 1000, Isomed GmbH, Dresden) and Wallac WIZARD Automatic Gamma Counter (PerkinElmer, Germany). The radioactivity of the tissue samples was decay-corrected and calibrated by comparing the counts in tissue with the counts in aliquots of the injected radiotracer that had been measured in the γ-counter at the same time. The activity in the selected organs was expressed as percent-injected dose per organ (% ID) and the activity concentration in tissues and organs as standardised uptake value (SUV). Values are quoted as mean ± standard error of mean (SEM) for each group of four animals.

[1] = testes, iv, 0.3 MBq, rat, i.v., n=4, read-out: Testes activity amount
[2] = testes, sc, 0.3 MBq, rat, s.c., n=4, read-out: Testes SUV
[3] = testes, sc, 0.3 MBq, rat, s.c., n=4, read-out: Testes activity amount
[4] = thymus, iv, 0.3 MBq, rat, i.v., n=4, read-out: Thymus activity amount
[5] = thymus, iv, 0.3 MBq, rat, i.v., n=8, read-out: Thymus activity amount
[6] = thymus, iv, rat, i.v., n=4, read-out: Thymus SUV
[7] = thymus, iv, rat, i.v., n=8, read-out: Thymus SUV
[8] = thymus, sc, 0.3 MBq, rat, s.c., n=4, read-out: Thymus activity amount
[9] = thymus, sc, rat, s.c., n=4, read-out: Thymus SUV
[10] = thyroid, iv, 0.3 MBq, rat, i.v., n=4, read-out: Thyroid activity amount
[11] = thyroid, iv, 0.3 MBq, rat, i.v., n=8, read-out: Thyroid activity amount
[12] = thyroid, sc, 0.3 MBq, rat, s.c., n=4, read-out: Thyroid activity amount
[13] = white adipose tissue, iv, 0.3 MBq, rat, i.v., n=4, read-out: WAT (white adipose tissue) SUV
[14] = white adipose tissue, iv, 0.3 MBq, rat, i.v., n=8, read-out: WAT (white adipose tissue) SUV
[15] = white adipose tissue, sc, 0.3 MBq, rat, s.c., n=4, read-out: WAT (white adipose tissue) SUV
[16] = whole blood, iv, 0.3 MBq, rat, i.v., n=4, read-out: Blood SUV

With `CSCC[C@@H]1NC(=O)[C@@H]2CSSC[C@H](NC(=O)[C@H](CO)NC(=O)[C@H](C)NC(=O)COCCOCCNC(=O)CN3CCN(CC(=O)O)CCN(CC(=O)O)CC3)C(=O)N[C@@H](CCCNC(=N)N)C(=O)N[C@@H]([C@@H](C)O)C(=O)N3CCC[C@H]3C(=O)N[C@@H](CCCCN)C(=O)N[C@@H](CC(=O)O)C(=O)N[C@H]3CSSC[C@H](NC(=O)[C@H](CCCCN)NC(=O)[C@H](CCCNC(=N)N)NC(=O)[C@H](CC(N)=O)NC1=O)C(=O)N[C@@H](CCCCN)C(=O)N[C@H]1CSSC[C@H](NC(=O)[C@@H]4CCCN4C(=O)[C@H](CC(=O)O)NC(=O)[C@H](C)NC3=O)C(=O)N[C@@H](C)C(=O)N[C@@H](CCCCN)C(=O)N[C@@H](CCC(=O)O)C(=O)N[C@@H]([C@@H](C)O)C(=O)NCC(=O)N[C@@H](CSSC[C@@H](C(N)=O)NC(=O)[C@H](CCCNC(=N)N)NC(=O)[C@H](CC(N)=O)NC1=O)C(=O)N1CCC[C@H]1C(=O)N[C@@H](Cc1ccc(O)cc1)C(=O)NCC(=O)N[C@@H](CCCCN)C(=O)N2` [[^64Cu]Cu-NOTA-HsTX1[R14A], metal not drawn] the tissue uptake dose at 4 h [1] was 0.21 ± 0.01 %ID, the SUV at 24 h (testes, iv, 0.3 MBq, rat, i.v., n=8, read-out: Testes SUV) was 0.87 ± 0.34 SUV and the tissue uptake dose at 24 h (testes, iv, 0.3 MBq, rat, i.v., n=8, read-out: Testes activity amount) was 1.05 ± 0.13 %ID. It also gave an SUV at 48 h (testes, iv, 0.3 MBq, rat, i.v., n=4, read-out: Testes SUV) of 0.5 ± 0.02 SUV, a tissue uptake dose at 48 h [1] of 0.76 ± 0.02 %ID and an SUV at 1 h [2] of 0.15 ± 0.01 SUV. It also gave a tissue uptake dose at 1 h [3] of 0.21 ± 0.01 %ID, an SUV at 4 h [2] of 0.12 ± 0.01 SUV and a tissue uptake dose at 4 h [3] of 0.2 ± 0.03 %ID. For the same molecule, the SUV at 24 h [2] was 0.54 ± 0.02 SUV, the tissue uptake dose at 24 h [3] was 0.92 ± 0.06 %ID and the SUV at 48 h [2] was 0.44 ± 0.01 SUV. The tissue uptake dose at 48 h [3] was 0.63 ± 0.06 %ID, the tissue uptake dose at 5 min [4] was 0.37 ± 0.07 %ID and the tissue uptake dose at 1 h [5] was 0.37 ± 0.08 %ID. The tissue uptake dose at 4 h [4] was 0.37 ± 0.04 %ID, the tissue uptake dose at 24 h [5] was 0.21 ± 0.03 %ID and the tissue uptake dose at 48 h [4] was 0.17 ± 0.02 %ID. For the same molecule, the SUV at 5 min [6] was 1.51 ± 0.08 SUV, the SUV at 1 h [7] was 1.33 ± 0.19 SUV and the SUV at 4 h [6] was 1.07 ± 0.02 SUV. It also gave an SUV at 24 h [7] of 0.74 ± 0.15 SUV, an SUV at 48 h [6] of 0.53 ± 0.02 SUV and a tissue uptake dose at 1 h [8] of 0.46 ± 0.01 %ID. It also gave a tissue uptake dose at 4 h [8] of 0.43 ± 0.04 %ID, a tissue uptake dose at 24 h [8] of 0.22 ± 0.01 %ID and a tissue uptake dose at 48 h [8] of 0.16 ± 0.02 %ID. It also gave an SUV at 1 h [9] of 1.15 ± 0.03 SUV, an SUV at 4 h [9] of 1.07 ± 0.11 SUV and an SUV at 24 h [9] of 0.63 ± 0.05 SUV. For the same molecule, the SUV at 48 h [9] was 0.46 ± 0.05 SUV, the tissue uptake dose at 5 min [10] was 0.07 %ID and the tissue uptake dose at 1 h [11] was 0.11 ± 0.02 %ID. The tissue uptake dose at 4 h [10] was 0.12 ± 0.01 %ID, the tissue uptake dose at 24 h [11] was 0.08 ± 0.01 %ID and the tissue uptake dose at 48 h [10] was 0.07 ± 0.02 %ID. It also gave a tissue uptake dose at 1 h [12] of 0.13 ± 0.02 %ID, a tissue uptake dose at 4 h [12] of 0.11 ± 0.02 %ID and a tissue uptake dose at 24 h [12] of 0.09 ± 0.05 %ID. The tissue uptake dose at 48 h [12] was 0.03 ± 0.02 %ID, the SUV at 5 min [13] was 0.28 ± 0.06 SUV and the SUV at 1 h [14] was 0.19 ± 0.07 SUV. The SUV at 4 h [13] was 0.15 SUV, the SUV at 24 h [14] was 0.19 ± 0.09 SUV and the SUV at 48 h [13] was 0.34 ± 0.08 SUV. The SUV at 1 h [15] was 0.25 ± 0.05 SUV, the SUV at 4 h [15] was 0.17 ± 0.05 SUV and the SUV at 24 h [15] was 0.22 ± 0.01 SUV. For the same molecule, the SUV at 48 h [15] was 0.17 ± 0.08 SUV, the SUV at 4 h [16] was 0.51 ± 0.02 SUV and the SUV at 24 h (whole blood, iv, 0.3 MBq, rat, i.v., n=8, read-out: Blood SUV) was 0.71 ± 0.16 SUV. The SUV at 48 h [16] was 0.38 ± 0.02 SUV, the SUV at 1 h (whole blood, sc, 0.3 MBq, rat, s.c., n=4, read-out: Blood SUV) was 0.65 ± 0.11 SUV and the tissue uptake dose (iv, 0.3 MBq, rat, i.v., 8 animals) was 48 ± 3 %ID. The tissue uptake dose (sc, 0.3 MBq, rat, s.c., 4 animals) was 45 ± 3 %ID, the brain uptake (rat) was “negligible” and the “AUC Kidney” value (rat, i.v., n=8) was 1417 ± 102 SUV x h. The “AUC Liver” value (rat, i.v., n=8) was 92,7 ± 11,0 SUV x h, the “t1/2 Blood” value (rat, i.v., n=8) was 49,5 h and the “t1/2 Kidney” value (rat, i.v., n=8) was 14,7 h. The “t1/2 Liver” value (rat, i.v., n=8) was 39,5 h, the “Cmax Kidney” value (rat, i.v., n=8) was 74,8 ± 12,8 SUV and the “Cmax Liver” value (rat, i.v., n=8) was 2,50 ± 0,57 SUV. For the same molecule, the “Peak time Blood” value (rat, i.v., n=8) was 1 h, the “Peak time Kidney” value (rat, i.v., n=8) was 1 h and the “Peak time Liver” value (rat, i.v., n=8) was 24 h. The “AUC Kidney” value (rat, s.c., n=4) was 1285 ± 57 SUV x h, the “AUC Liver” value (rat, s.c., n=4) was 87,8 ± 9,5 SUV x h and the “t1/2 Blood” value (rat, s.c., n=4) was 46,4 h. For the same molecule, the “t1/2 Kidney” value (rat, s.c., n=4) was 18,9 h, the “t1/2 Liver” value (rat, s.c., n=4) was 35,9 h and the “Cmax Blood” value (rat, s.c., n=4) was 0,65 ± 0,11 SUV. The “Cmax Kidney” value (rat, s.c., n=4) was 70,2 ± 4,1 SUV, the “Cmax Liver” value (rat, s.c., n=4) was 2,23 ± 0,32 SUV and the “Peak time Blood” value (rat, s.c., n=4) was 1 h. The “Peak time Kidney” value (rat, s.c., n=4) was 4 h, the “Peak time Liver” value (rat, s.c., n=4) was 24 h and the “biological half-life of the total activity in the rat body” value (s.c.) was 42.0 h.
